B1: Bcl-2 homologous antagonist/killer (Homo sapiens), Q16611 (parent)
chain: MASGQGPGPPRQECGEPALPSASEEQVAQDTEEVFRSYVFYRHQQEQEAEGVAAPADPEMVTLPLQPSSTMGQVGRQLAIIGDDINRRYDSEFQTMLQHLQPTAENAYEYFTKIATSLFESGINWGRVVALLGFGYRLALHVYQHGLTGFLGQVTRFVVDFMLHHCIARWIAQRGGWVAALNLGNGPILNVLVVLGVVLLGQFVVRRFFKS
B2: Phorbol-12-myristate-13-acetate-induced protein 1 (Homo sapiens), Q13794 (parent)
chain: MPGKKARKNAQPSPARAPAELEVECATQLRRFGDKLNFRQKLLNLISKLFCSGT

Variants of: B1
Settings: with mcl1_mouse Mcl1, P97287
Chain of mcl1_mouse Mcl1, P97287 (P97287 whole entry): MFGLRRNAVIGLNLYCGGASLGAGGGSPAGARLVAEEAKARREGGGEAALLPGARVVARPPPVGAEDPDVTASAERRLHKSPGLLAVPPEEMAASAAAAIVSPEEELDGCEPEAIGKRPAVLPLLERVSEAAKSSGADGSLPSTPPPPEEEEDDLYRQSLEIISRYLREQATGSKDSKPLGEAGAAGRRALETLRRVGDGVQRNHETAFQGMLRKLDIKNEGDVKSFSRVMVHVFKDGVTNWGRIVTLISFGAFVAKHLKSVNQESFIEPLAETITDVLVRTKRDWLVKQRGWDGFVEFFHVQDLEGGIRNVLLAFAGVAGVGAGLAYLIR

Row | Variant | effect of a mutation on the interaction
1 | L78A | decreasing interaction

Variants of: B1
Settings: with mcl1_human MCL1, Q07820
Target sequence in this assay (Q07820 whole entry): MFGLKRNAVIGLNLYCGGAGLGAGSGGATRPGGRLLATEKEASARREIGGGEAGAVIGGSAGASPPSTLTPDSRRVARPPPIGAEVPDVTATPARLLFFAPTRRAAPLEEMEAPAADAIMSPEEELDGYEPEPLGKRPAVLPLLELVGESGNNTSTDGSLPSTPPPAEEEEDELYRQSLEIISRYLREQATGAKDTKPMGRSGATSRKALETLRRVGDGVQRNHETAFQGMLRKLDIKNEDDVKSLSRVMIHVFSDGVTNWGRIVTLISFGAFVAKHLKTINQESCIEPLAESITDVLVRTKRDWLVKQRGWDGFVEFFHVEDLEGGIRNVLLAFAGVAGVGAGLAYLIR

Row | Variant | effect of a mutation on the interaction
2 | L78A | decreasing interaction

Variants of: B1
Settings: with bax_human BAX

Row | Variant | effect of a mutation on the interaction
3 | L78A | decreasing interaction

Variants of: B2
Settings: with mcl1_human MCL1, Q07820
Target sequence in this assay (Q07820 whole entry): as above

Row | Variant | effect of a mutation on the interaction
4 | L36E | decreasing interaction
5 | L29E | decreasing interaction
6 | F32E | decreasing interaction
